Reference: patent publication US20220281948A1 (UNIVERSITY HEALTH NETWORK, published 2022)
Positions count from the first letter of the chain named. In names and notes the source's numbering stands.

Experiments:
[1] = molecular target: T1, soluble CD4 (sCD4): human CD4 extracellular domain fused with a 6×His tag via a GS linker, dimerized with a … (human, UniProt P01730 26-396); assay: flow cytometry, sCD4 MFI of K562 cells
T1 construct: also called soluble CD4 protein; soluble CD4 dimer

[2] = molecular target: T2, recombinant 10× His-tagged CD4 protein (extracellular domain of human CD4, GS linker, 10× histidine tag) (human, UniProt P01730 26-390); assay: biolayer interferometry
T2 construct: also called recombinant CD4; sCD4 (analyte)

[3] = molecular target: T2, recombinant 10× His-tagged CD4 protein …; assay: BLI KD set against the earlier estimate of KD >2 mM between CD4 and HLA class II
[4] = molecular target: T2, recombinant 10× His-tagged CD4 protein …; assay: biolayer interferometry (Octet Red), biotinylated DP4 on streptavidin sensors, CD4 as analyte, steady-state fit
[5] = molecular target: T1, soluble CD4 (sCD4): human CD4 …; assay: flow cytometry, K562 cells

B1: V114M (other)
DP alpha chain: IKADHVSTYAAFVQTHRPTGEFMFEFDEDEMFYVDLDKKETVWHLEEFGQAFSFEAQGGLANIAILNNNLNTLIQRSNHTQATNDPPEVTVFPKEPVELGQPNTLICHIDKFFPPVLNVTWLCNGELVTEGVAESLFLPRTDYSFHKFHYLTFVPSAEDFYDCRVEHWGLDQPLLKHWEAQEPIQMPETTET
DP beta chain: RATPENYLFQGRQECYAFNGTQRFLERYIYNREEFARFDSDVGEFRAVTELGRPAAEYWNSQKDILEEKRAVPDRMCRHNYELGGPMTLQRRVQPRVNVSPSKKGPLQHHNLLMCHVTDFYPGSIQVRWFLNGQEETAGVVSTNLIRNGDWTFQILVMLEMTPQQGDVYTCQVEHTSLDSPVTVEWKAQSDSARSK
notes: also called DP4 with the single V114M substitution on K562 cells
B1: no binding [1].

B2: L112W/V114M/M158I (other)
DP alpha chain: B1 DP alpha chain
DP beta chain: B1 DP beta chain with L112W, M158I
notes: also called DP4 reversion mutant on K562 cells
B2: no binding [1].

B3: M158I (other)
DP alpha chain: B1 DP alpha chain
DP beta chain: B1 DP beta chain with M114V, M158I
notes: also called DP4 with the single M158I substitution on K562 cells
B3: no binding [1].

B4: L112W/V114M (other)
DP alpha chain: B1 DP alpha chain
DP beta chain: B1 DP beta chain with L112W
notes: as for B2
B4: no binding [1].

B5: L112W/M158I (other)
DP alpha chain: B1 DP alpha chain
DP beta chain: B1 DP beta chain with L112W, M114V, M158I
notes: as for B2
B5: no binding [1].

B6: V114M/M158I (other)
DP alpha chain: B1 DP alpha chain
DP beta chain: B1 DP beta chain with M158I
notes: as for B2
B6: no binding [1].

B7: biotinylated recombinant wild-type DP4 (extracellular domains of DPA1*01:03 and wild-type DPB1*04:01, leucine zippers) (other)
MHC II alpha: IKADHVSTYAAFVQTHRPTGEFMFEFDEDEMFYVDLDKKETVWHLEEFGQAFSFEAQGGLANIAILNNNLNTLIQRSNHTQATNDPPEVTVFPKEPVELGQPNTLICHIDKFFPPVLNVTWLCNGELVTEGVAESLFLPRTDYSFHKFHYLTFVPSAEDFYDCRVEHWGLDQPLLKHWEAQEPIQMPETTETGGGGSLEIRAAFLRQRNTALRTEVAELEQEVQRLENEVSQYETRYGPLGGGKGSHHHHHHHHHH
MHC II beta: RATPENYLFQGRQECYAFNGTQRFLERYIYNREEFARFDSDVGEFRAVTELGRPAAEYWNSQKDILEEKRAVPDRMCRHNYELGGPMTLQRRVQPRVNVSPSKKGPLQHHNLLVCHVTDFYPGSIQVRWFLNGQEETAGVVSTNLIRNGDWTFQILVMLEMTPQQGDVYTCQVEHTSLDSPVTVEWKAQSDSARSKGGGGSLEIEAAFLERENTALETRVAELRQRVQRLRNRVSQYRTRYGPLGGGKGSGLNDIFEAQKIEWHE
notes: also called biotinylated wild-type DP4 (ligand)
B7: no binding (tested: 26 µM) [2].

B8: biotinylated recombinant DP4^[change]/[change] (extracellular domains of DPA1*01:03 and DPB1*04:01 [ (other)
MHC II alpha: B7 MHC II alpha
MHC II beta: B7 MHC II beta with L112W, V141M
With B8 the “fold improvement in the binding affinity” value [3] was ≥ 200 fold and the Kd [4] was 8.9 µM.

B9: wild-type DP4 (DPA1*01:03 / DPB1*04:01) on K562 cells (other, human)
MHC II alpha: not shown
MHC II beta: not shown
notes: whole, on cells; also called HLA-DP4
B9: no binding [5].
